Test [1] has as its target T1, recombinant APC/C (anaphase promoting complex/cyclosome) (UniProt Q9NYG5 1-84; Q9UJX6 1-822; Q9H1A4 1-1944; P30260 1-824). Description: enzyme kinetics (in vitro APC/C ubiquitination assay); 20 nM recombinant APC/C, 340 nM CDC20, UBA1, UBE2C K119R, ubiquitin; securin titrated from 50 nM to 5 μM with and without H6; initial velocity; 30 °C, 30 mM HEPES pH 7.4, 175 mM NaCl, 8 mM MgCl2; model for noncompetitive inhibition. The following applies: both partners purified.

Test [2] has as its target T1, recombinant APC/C (anaphase promoting …). Description: cell-based or functional assay.

Bridge positions count the residues as written; N and C are the ends. Square brackets hold non-standard residues; d marks the D form. Ends that are not written are not given here. R8 = C=CCCCCCC[C@@](C)(N)C(=O)O; S5 = C=CCCC[C@](C)(N)C(=O)O

What is called Ki is a measure of affinity in units of concentration, obtained from inhibition or displacement.

T1 sequence (P30260 whole entry, looked up, chain 1 of 4): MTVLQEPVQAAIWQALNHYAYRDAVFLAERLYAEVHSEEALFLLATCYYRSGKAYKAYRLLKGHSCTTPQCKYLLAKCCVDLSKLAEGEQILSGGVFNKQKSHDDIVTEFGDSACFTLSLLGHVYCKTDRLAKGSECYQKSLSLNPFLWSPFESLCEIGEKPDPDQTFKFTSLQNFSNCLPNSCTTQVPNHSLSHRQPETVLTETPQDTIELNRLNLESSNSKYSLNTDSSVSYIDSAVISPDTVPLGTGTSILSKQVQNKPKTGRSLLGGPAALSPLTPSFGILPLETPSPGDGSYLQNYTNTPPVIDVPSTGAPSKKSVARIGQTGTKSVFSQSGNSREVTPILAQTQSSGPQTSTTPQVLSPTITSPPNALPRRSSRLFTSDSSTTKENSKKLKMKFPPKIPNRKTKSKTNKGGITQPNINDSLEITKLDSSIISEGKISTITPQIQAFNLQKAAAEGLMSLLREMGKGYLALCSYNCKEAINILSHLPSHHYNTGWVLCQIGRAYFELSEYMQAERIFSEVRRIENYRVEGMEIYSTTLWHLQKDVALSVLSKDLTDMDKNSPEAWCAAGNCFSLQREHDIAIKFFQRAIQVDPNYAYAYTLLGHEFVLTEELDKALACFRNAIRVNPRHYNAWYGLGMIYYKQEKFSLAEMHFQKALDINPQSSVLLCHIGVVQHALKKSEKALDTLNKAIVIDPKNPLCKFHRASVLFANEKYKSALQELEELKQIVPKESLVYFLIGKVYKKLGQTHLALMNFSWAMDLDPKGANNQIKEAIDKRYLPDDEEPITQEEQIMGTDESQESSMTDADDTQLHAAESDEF
T1 sequence (Q9H1A4 whole entry, looked up, chain 2 of 4): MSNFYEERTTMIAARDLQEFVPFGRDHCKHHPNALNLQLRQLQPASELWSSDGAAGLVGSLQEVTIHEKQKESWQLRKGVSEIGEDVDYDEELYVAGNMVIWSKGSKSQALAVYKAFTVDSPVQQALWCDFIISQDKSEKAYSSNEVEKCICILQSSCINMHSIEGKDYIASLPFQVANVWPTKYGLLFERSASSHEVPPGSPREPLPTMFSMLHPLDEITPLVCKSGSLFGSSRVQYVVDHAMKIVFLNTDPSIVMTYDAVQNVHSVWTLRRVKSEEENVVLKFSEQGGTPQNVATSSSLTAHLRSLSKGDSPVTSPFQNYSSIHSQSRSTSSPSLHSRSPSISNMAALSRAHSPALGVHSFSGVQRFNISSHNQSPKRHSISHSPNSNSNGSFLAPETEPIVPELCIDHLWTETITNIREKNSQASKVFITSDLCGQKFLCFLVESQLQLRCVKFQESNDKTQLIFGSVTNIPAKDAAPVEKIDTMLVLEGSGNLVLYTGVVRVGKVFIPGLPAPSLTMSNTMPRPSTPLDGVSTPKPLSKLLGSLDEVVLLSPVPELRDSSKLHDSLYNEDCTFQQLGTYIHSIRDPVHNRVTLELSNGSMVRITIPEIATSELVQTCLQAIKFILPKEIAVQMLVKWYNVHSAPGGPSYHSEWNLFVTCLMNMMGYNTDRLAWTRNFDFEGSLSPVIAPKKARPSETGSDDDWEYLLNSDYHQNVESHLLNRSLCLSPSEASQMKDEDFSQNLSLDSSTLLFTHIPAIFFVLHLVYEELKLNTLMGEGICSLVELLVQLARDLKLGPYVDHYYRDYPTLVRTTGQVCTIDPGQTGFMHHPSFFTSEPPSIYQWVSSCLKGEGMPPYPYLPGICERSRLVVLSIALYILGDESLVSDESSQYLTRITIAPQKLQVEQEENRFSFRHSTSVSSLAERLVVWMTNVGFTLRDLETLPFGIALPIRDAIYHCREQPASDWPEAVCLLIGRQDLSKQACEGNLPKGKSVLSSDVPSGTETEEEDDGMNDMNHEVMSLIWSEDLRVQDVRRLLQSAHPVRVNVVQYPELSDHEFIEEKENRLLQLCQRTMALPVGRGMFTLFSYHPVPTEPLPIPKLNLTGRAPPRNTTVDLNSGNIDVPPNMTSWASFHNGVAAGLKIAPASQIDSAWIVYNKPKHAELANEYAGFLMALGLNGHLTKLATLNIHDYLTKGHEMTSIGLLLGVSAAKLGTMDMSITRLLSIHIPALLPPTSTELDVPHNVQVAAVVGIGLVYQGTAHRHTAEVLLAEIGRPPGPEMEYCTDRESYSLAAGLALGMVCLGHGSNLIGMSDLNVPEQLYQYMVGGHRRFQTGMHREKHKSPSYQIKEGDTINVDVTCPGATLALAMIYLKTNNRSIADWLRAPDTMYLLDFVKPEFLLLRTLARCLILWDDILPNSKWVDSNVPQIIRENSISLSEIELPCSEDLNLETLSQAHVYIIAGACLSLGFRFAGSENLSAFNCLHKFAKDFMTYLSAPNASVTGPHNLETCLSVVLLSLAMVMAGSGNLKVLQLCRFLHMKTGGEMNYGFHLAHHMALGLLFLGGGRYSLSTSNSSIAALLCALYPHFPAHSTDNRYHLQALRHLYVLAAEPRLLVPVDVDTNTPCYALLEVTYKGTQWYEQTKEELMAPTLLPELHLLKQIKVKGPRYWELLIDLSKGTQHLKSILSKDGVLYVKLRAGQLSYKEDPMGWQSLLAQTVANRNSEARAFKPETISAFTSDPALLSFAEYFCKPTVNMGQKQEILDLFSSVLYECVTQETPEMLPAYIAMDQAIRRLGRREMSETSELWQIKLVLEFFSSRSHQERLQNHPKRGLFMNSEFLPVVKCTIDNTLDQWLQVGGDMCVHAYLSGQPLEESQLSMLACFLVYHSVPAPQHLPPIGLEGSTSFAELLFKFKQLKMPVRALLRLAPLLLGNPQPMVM
T1 sequence (Q9UJX6 whole entry, looked up, chain 3 of 4): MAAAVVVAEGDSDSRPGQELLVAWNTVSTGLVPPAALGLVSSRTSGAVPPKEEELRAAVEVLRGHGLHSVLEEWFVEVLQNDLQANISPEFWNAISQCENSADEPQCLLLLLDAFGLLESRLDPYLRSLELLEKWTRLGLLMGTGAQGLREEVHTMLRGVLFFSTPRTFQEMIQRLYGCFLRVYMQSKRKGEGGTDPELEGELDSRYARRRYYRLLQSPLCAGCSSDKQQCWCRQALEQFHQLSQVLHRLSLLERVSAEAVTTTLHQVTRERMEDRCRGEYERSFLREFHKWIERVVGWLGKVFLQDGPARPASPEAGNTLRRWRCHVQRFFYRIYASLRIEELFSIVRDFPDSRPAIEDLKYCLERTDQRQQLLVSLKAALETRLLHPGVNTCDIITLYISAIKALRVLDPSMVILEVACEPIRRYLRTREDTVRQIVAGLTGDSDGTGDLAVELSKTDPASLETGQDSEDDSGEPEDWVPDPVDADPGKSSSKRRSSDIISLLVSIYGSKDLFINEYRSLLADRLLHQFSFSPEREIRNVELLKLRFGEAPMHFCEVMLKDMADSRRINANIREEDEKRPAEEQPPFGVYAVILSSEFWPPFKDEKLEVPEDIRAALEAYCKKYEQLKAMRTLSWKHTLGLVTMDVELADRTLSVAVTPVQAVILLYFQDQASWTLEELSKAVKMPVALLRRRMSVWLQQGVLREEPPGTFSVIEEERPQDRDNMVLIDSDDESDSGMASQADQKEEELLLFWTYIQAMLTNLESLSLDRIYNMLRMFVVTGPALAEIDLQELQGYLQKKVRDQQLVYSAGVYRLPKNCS
T1 sequence (Q9NYG5 whole entry, looked up, chain 4 of 4): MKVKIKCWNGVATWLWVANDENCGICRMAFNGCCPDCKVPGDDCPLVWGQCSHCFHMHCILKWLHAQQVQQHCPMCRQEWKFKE

As to EWW[R8]IKEIQR[S5]RRA (designed binder, staple 4-11) [H6], the Ki in test [1] is 5.03 ± 0.79 µM. Besides, the “IC50 of in vitro APC/C ubiquitination of the substrate, H6 titrated from 0.01 to 100 μM; blocks E2 recruitment to the RING domain of APC/C” value in test [2] worked out at 1.96 µM.

The values above are taken from PMC12169662, “De Novo-Designed APC/C Inhibitors Provide a Rationale for Targeting RING-Type E3 Ubiquitin Ligases” (Journal of Medicinal Chemistry, 2025).
